The target in test [1] is T1, His-tagged recombinant human CD163 (R&D Systems, No. 1607-CD-050) (human, UniProt Q86VB7 46-1050, limits assumed).
T1 construct: Bought protein; also called recombinant CD163 protein; huCD163; not shown: His tag
In words: ELISA, plate coated with His-tagged recombinant human CD163 at 5 µg/mL, detection with anti-human IgG F(ab')2-HRP, A450; log axis in nM. How it is done: (§1) CD163 variant antibody binding to His-tagged recombinant human CD163 (R&D Systems, No. 1607-CD-050) protein was determined using ELISA. Recombinant protein was diluted in PBS to 5 μg/mL and added to 384-well high-binding ELISA plates (Greiner Bio-One, No. 781061) at 25 μL per well and incubated at 4° C. overnight. The plates were washed three times with PBS, using a BioTek ELx405 Select microplate washer (wash program ELISA_384_PBS_3×_wash) and then blocked with 90 μL/well of blocking buffer (2% nonfat, dry milk/PBS+0.05% Tween 20) for 1 hour at RT.
(§2) After blocking, 25 μL per well of primary antibodies were added to the plates and incubated for 1 hour at RT. […] After primary antibody binding, plates were washed three times with PBS using the EL405× (wash program ELISA_384_PBS 3×_wash). The secondary antibody was a goat anti-human IgG F(ab′)₂ HRP (Jackson Immunoresearch, No. 109-035-097). Secondary antibody was diluted to 1:2500 in 2% nonfat, dry milk/PBS, and 25 μL per well was added to the wells and incubated at RT for 1 hour. The plates were washed four times with PBS, using the EL405× (wash program ELISA_384_PBS_4× wash). After removal of the final wash, 25 μL/well of neat I-Step™ Ultra TMB-ELISA Substrate Solution (ThermoFisher, No. 34028) was added and the plates were incubated for 10-15 minutes at RT protected from light. After development, the reaction was stopped by adding 25 μL per well of 0.3 M HCl and plates were read using a SpectraMax M5e instrument at 450 nm.
(ELISA stands for enzyme-linked immunosorbent assay.)

For test [2], the target named is T2, Biotin-labeled human CD163 (human, UniProt Q86VB7 42-1050, limits assumed, biotin-labeled (sites not given)).
T2 construct: Biotinylated form of the human CD163 antigen, immobilised on SA biosensors for BLI; also called b-huCD163; Human CD163 Protein (biotinylated)
T2 sequence (Q86VB7 42-1050 limits assumed): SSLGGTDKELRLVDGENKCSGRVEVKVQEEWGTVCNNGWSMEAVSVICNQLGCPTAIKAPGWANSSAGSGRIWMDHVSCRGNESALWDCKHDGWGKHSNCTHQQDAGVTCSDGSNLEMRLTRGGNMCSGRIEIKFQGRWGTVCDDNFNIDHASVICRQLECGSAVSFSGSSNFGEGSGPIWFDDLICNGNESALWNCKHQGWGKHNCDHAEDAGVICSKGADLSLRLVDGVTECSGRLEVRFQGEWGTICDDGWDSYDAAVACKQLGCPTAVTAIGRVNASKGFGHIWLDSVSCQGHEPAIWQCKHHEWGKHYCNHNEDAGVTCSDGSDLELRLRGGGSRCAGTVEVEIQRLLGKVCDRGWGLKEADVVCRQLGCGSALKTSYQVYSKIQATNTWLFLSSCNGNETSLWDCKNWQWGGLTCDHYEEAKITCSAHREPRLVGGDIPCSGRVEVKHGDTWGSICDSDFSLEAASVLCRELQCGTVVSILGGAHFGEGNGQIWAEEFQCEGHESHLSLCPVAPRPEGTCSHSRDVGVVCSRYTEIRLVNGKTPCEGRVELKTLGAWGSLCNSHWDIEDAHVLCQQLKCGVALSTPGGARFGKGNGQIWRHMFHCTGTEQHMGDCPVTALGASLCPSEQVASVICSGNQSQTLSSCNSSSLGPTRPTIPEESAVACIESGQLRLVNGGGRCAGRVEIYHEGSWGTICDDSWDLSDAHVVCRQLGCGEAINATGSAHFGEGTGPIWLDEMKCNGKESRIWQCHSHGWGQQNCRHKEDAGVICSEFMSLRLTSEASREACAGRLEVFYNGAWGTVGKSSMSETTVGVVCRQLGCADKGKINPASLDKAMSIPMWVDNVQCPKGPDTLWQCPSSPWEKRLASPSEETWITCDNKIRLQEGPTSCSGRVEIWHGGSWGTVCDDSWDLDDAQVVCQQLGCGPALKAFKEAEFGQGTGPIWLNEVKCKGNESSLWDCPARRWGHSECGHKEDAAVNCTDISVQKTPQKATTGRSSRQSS
In words: BLI (Octet RED96), b-huCD163 on SA biosensor, one Ab concentration 50.0 nM. Background: In BLI a coated tip is dipped into the sample, and binding shifts an interference pattern.

In test [3] the target is T1, His-tagged recombinant human CD163 (R&D …). In words: ELISA, His-tagged recombinant human CD163 coated at 5 µg/mL. The procedure: as §1, §2
Test [4] shares this target. In words: ELISA, His-tagged recombinant human CD163 coated; ratio of EC50 against AB101. How it is done:
as §1
as §2, with “After removal of the final wash, 25 μL/well of neat I-Step™ Ultra TMB-ELISA Substrate Solution (ThermoFisher, No. 34028) was added and the plates were incubated for 10-15 minutes at RT protected from light.” left out

For test [5] the target is unchanged. Nature of the test: ratio of the KD values of Table 6 (AB101 parental Ab KD over clone 4 KD); the method is not shown in the excerpt.
For test [6], the target named is T2, Biotin-labeled human CD163. Nature of the test: BLI (Octet RED96), b-huCD163 on SA biosensor, Ab at 6.25/12.5/25/50 nM. The procedure: The SA sensors were placed in the PBS buffer for 15 minutes. Different solutions were added to a 96-well plate according to the following orders, with 200 μL per well.
Test [7] addresses T2, Biotin-labeled human CD163. In words: BLI (Octet RED96), b-huCD163 on SA biosensor, ratio of KD against AB101 parental Ab.
Test [8] deals with T3, human CD163 expressed on cells (SU-DHL-1 lymphoma cells, M2c macrophages, monocytes and dendritic cells of … (human, UniProt Q86VB7 42-1114)). Nature of the test: cell-based or functional assay.
T3 sequence (Q86VB7 other isoform, or with tags, fused parts or gaps limits assumed): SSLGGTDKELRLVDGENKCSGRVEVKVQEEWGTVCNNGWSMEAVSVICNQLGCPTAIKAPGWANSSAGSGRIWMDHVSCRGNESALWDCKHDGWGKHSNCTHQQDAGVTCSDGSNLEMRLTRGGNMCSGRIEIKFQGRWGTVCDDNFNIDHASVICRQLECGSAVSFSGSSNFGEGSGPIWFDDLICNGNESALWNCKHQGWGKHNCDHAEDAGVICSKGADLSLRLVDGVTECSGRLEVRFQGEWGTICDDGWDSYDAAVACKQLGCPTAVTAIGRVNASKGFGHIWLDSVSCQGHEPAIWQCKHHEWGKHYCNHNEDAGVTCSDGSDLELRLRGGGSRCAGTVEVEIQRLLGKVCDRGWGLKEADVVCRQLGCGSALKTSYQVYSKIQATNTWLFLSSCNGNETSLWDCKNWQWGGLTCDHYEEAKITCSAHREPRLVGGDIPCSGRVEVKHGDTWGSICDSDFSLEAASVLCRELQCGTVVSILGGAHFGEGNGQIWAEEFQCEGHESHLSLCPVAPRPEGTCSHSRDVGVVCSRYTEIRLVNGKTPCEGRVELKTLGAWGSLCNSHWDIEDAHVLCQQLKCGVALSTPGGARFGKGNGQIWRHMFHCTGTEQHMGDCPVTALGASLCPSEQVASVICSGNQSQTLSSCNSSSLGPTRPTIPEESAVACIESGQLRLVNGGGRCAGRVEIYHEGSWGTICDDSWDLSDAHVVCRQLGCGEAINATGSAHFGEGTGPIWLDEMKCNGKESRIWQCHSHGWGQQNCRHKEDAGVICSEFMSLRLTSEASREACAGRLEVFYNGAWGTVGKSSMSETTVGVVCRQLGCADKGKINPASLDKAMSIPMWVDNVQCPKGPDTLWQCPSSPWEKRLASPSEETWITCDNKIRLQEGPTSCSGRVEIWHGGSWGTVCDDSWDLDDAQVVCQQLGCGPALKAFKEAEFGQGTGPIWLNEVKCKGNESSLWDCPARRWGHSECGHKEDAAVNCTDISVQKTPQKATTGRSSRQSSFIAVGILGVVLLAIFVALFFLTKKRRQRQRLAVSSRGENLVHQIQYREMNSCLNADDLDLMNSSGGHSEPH
Test [9] addresses T3, human CD163 expressed on cells …. In words: cell-based or functional assay. The source holds these as a separate data set.
For test [10] the target is unchanged. In words: cell-based or functional assay. The source holds these as a separate data set.
Test [11] shares this target. Nature of the test: flow cytometry on whole blood, classical monocytes, APC-labeled antibody. The procedure: (§3) Antibody binding to human immune cell lineage subsets was assessed by flow cytometry. Briefly, whole blood with heparin as an anticoagulant was obtained (Bloodworks Northwest). Fc-receptor blocking reagent was directly added to whole blood to a final concentration of 10% FBS, 0.5 mg/mL human IgG1 and 0.05% NaN₃ in a final sample volume of 400 μL. […] After 30 minutes, red blood cells (RBC) were lysed with RBC lysis buffer, followed by Zombie UV viability staining. Then, cells were washed with FACS buffer (PBS containing 1% FBS, 2 mM EDTA, and 0.05% NaN₃) and resuspended in FACS buffer containing 10% FBS and 10% FcX block. Then, the antibody phenotyping cocktail (Table 8a) was added and incubated at room temperature for 30 minutes in the dark. Cells were washed with FACS buffer and resuspended in FACS buffer data acquisition using a FACSymphony™ Cytometer (BD BioSciences). Analysis was performed using FlowJo software. Populations were identified according to gating parameters as described in Table 8b.
On the technique in general: Flow cytometry measures light scatter and fluorescence of single cells or particles in a stream.

Test [12] shares this target. In words: cell-based or functional assay. The source holds these as a separate data set.
The target is the same in test [13]. In words: flow cytometry on whole blood, nonclassical monocytes, APC-labeled antibody. The procedure:
as §3

The target is the same in test [14]. In words: flow cytometry on whole blood, intermediate monocytes, APC-labeled antibody. The procedure: as §3
Test [15] has the same target. In words: flow cytometry on whole blood, DCs, APC-labeled antibody. The procedure: as §3

From patent US20240092926A1 (ONCORESPONSE, published 2024) come the findings set out here.

Positions count from the first letter of the chain named.

T1 sequence (Q86VB7 46-1050 limits assumed): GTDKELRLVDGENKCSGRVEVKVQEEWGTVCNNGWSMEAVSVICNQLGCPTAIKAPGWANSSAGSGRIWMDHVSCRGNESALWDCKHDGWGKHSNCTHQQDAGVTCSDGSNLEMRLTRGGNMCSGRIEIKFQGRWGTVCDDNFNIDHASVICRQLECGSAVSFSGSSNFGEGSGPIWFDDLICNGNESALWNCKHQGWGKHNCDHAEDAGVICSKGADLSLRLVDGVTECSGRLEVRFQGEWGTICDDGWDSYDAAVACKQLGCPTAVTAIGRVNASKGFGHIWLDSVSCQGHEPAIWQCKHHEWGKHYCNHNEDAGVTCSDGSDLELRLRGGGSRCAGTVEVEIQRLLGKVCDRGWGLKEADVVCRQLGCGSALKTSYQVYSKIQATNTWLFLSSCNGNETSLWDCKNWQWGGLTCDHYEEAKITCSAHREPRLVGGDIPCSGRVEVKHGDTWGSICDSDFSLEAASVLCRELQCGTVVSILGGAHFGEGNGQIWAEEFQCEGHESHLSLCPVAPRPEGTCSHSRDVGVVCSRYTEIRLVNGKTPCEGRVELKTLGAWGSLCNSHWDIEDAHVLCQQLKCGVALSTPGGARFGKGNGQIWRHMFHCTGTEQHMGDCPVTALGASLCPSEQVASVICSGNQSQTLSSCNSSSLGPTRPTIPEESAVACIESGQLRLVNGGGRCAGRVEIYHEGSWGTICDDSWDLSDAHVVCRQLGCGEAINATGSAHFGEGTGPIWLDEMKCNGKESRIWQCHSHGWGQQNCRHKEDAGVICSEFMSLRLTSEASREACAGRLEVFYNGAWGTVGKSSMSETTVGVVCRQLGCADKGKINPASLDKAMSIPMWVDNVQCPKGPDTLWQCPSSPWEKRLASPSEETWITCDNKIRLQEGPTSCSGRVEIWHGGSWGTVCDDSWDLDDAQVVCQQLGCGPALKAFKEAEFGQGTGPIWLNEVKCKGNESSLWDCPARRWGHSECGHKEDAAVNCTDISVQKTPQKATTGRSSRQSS

B1: Variant 1 (V1) (antibody, V domains shown)
VH: EVQLVESGGGVVQPGRSLRLSCAASGFTFSSYDMHWVRQAPGKGLEWVAVISEDGSNKYNADSVKGRFTISRDNSKNTLYLQMNSLRAEDTAVYYCARENVRPYYDFWSGYSSEYYYYGLDVWGQGTTVTVS
VL: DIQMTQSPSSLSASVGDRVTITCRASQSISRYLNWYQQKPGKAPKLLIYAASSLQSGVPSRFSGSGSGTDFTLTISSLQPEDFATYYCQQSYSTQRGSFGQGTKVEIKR
notes: The printed VH ends in TVS, one S shorter than the other variants
Turning to B1, in test [1], the “EC50 (read off the curve)” value is roughly 2 pM. Besides, in test [2], the equilibrium dissociation constant (Kd) was determined as 1.25 nM, the koff stood at 0.00112 s⁻¹ and the kon worked out at 895000 M⁻¹ s⁻¹. Further, the EC50 in test [3] amounted to 1.87 nM. In [4], the “fold stronger binding than AB101 parental antibody (EC50)” value fell in the range of 27 to 45 fold.

B2: Variant 4 (V4) (antibody, V domains shown)
VH: EVQLVESGGGVVQPGRSLRLSCAASGFTFSSYVMHWVRQAPGKGLEWVAVISEDGSNKYNADSVKGRFTISRDNSKNTLYLQMNSLRAEDTAVYYCARENVRPYYDFWSGYSSEYYYYGLDVWGQGTTVTVSS
VL: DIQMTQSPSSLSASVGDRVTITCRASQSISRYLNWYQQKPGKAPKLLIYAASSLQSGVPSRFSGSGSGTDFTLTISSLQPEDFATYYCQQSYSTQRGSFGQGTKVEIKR
notes: also called clone 4
B2: the “fold affinity enhancement compared to AB101 parental Ab” value in test [5] is roughly 3760 fold. For the same molecule, in test [6], the affinity, expressed as Kd, was 0.176 nM; the koff amounted to 0.000393 s⁻¹; the kon was determined as 2.23e+06 M⁻¹ s⁻¹. The “EC50 (read off the curve)” value in [1] was roughly 3 pM. In [2], this molecule showed a Kd of 0.824 nM, a koff of 0.000874 s⁻¹ and a kon of 1.06e+06 M⁻¹ s⁻¹. The EC50 in test [3] was determined as 3.05 nM. For the same molecule, the “Affinity enhancement compared to parental Ab” value in [7] worked out at 3760 fold. For the same molecule, the “fold stronger binding than AB101 parental antibody (EC50)” value in [4] was 27 to 45 fold.

B3: Variant 6 (V6) (antibody, V domains shown)
VH: B2 VH with Y32E, V33T
VL: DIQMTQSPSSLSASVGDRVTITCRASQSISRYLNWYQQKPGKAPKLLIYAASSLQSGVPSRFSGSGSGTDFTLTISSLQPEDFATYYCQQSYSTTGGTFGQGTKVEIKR
On to B3, for which, in [1], the “EC50 (read off the curve)” value is roughly 3 pM. Besides, in test [2], the Kd was found to be 0.964 nM, the koff was determined as 0.000887 s⁻¹ and the association rate constant (kon) came out at 921000 M⁻¹ s⁻¹. Besides, in [3], the EC50 was found to be 2.68 nM.

B4: Variant 5 (V5) (antibody, V domains shown)
VH: B2 VH with V33D, S109R, S112N
VL: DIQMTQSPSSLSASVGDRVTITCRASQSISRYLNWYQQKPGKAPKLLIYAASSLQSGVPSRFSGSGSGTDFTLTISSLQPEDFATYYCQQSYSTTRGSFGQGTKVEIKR
For B4, the “EC50 (read off the curve)” value in test [1] is roughly 3 pM. In [2], this molecule showed a Kd of 1.03 nM, a koff of 0.000978 s⁻¹ and a kon of 951000 M⁻¹ s⁻¹. In test [3], the EC50 is 2.83 nM.

B5: Variant 2 (V2) (antibody, V domains shown)
VH: B2 VH with Y32E, V33T, N60H, S112N, L120M
VL: DIQMTQSPSSLSASVGDRVTITCRASQSISRYLNWYQQKPGKAPKLLIYAASSLQNGVPSRFSGSGSGTDFTLTISSLQPEDFATYYCQQSYSTTRGSFGQGTKVEIKR
Regarding B5, in test [1], the “EC50 (read off the curve)” value was roughly 2 pM. In addition, in test [2], the Kd was 0.991 nM, the koff amounted to 0.00087 s⁻¹ and the kon is 878000 M⁻¹ s⁻¹. Further, the EC50 in test [3] was 2.23 nM.

B6: Variant 3 (V3) (antibody, human IgG1, V domains shown)
VH: B2 VH with N60E, S109R, S112N
VL: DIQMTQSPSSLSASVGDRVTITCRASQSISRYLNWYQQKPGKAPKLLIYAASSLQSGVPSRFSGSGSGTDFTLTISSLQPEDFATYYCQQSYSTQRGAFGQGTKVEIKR
Consider B6, for which, in test [8], the “EC50 of antibody-elicited IFNγ secretion (M2c/T cell blast coculture)” value worked out at 0.47 nM. In test [9], the “potency against AB101 in relieving M2c-mediated suppression of IFNγ release” value is greater than 10 fold, the “potency against parental AB101 in relieving M2c-mediated suppression of CD8+ T cell proliferation” value is roughly 40 fold and the “potency against parental AB101 in relieving M2c-mediated suppression of perforin secretion” value is roughly 100 fold. Also, in test [10], the “EC50 of antibody-elicited T cell proliferation (M2c/CD8+ T cell coculture)” value is 0.27 nM. For the same molecule, in test [11], the “fold increase of geometric MFI compared to AB101” value (“fold increase of geometric MFI” below) came to 9.8 fold. In [12], the “EC50 of antibody-elicited perforin secretion (M2c/CD8+ T cell coculture)” value amounted to 0.33 nM. Besides, in [1], the “EC50 (read off the curve)” value was roughly 3 pM. In [2], binding was characterised by a dissociation constant (Kd) of 0.937 nM, the koff is 0.000925 s⁻¹ and the kon amounted to 987000 M⁻¹ s⁻¹. Besides, the EC50 in test [3] was found to be 2.79 nM. Besides, the “fold increase of geometric MFI” value in [13] amounted to 3 fold. In test [14], the “fold increase of geometric MFI” value worked out at 9.2 fold. In [15], the “fold increase of geometric MFI” value was determined as 4.3 fold.

As a reminder, the EC50 (read off the curve) is the midpoint of the concentration-response curve. The term Kd denotes the constant that tells how readily two partners part at equilibrium. Low readings indicate higher affinity, high ones lower affinity. One may read the koff as a measure of how fast the partners let go of each other. The low end stands for a long-lived complex, the high end for a short-lived complex. A word on the kon: it is the rate constant with which the complex forms. A lower kon goes with slow association. Usually EC50 stands for the concentration at which the effect is half-maximal.
